Experimental data: publication PMC9585082, “Structural insight into the ligand binding mechanism of aryl hydrocarbon receptor” (Nature Communications, 2022)
Where a chain is given by its changes, count along the chain named. Blank lines part the entries; values can stand above or below the binder they belong to.

Columns and labels:
Conditions in all cases: both partners purified
[1] = target: T1, 6xHis-tagged dAHR PAS-B, Red-labeled (Drosophila melanogaster, UniProt O61543 264-381, labeled with the MO Red-Tris-NTA protein labeling kit); assay: MST; 50 nM Red-labeled 6xHis-dAHR PAS-B; mARNT PAS-B 100 µM to 3 nM; PBS, 0.05% Tween-20, 2.5% DMSO, 0.5 mM TCEP; with 1 µM αNF
T1 construct: Aryl hydrocarbon receptor homolog spineless (dAHR), Drosophila melanogaster, UniProt O61543, PAS-B domain aa 264-381; the only His-tagged dAHR PAS-B construct it describes is the 6xHis-SUMO fusion (pET-28s), so SUMO may also have been present; also called Red-labeled dAHR PAS-B; source: purified; E. coli Rosetta (DE3) is the host named for pET-28s-dAHR PAS-B
T1 sequence (looked up): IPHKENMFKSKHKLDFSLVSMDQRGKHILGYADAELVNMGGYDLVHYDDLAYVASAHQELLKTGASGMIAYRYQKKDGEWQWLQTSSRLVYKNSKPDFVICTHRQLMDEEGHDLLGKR

[2] = target: T1, 6xHis-tagged dAHR PAS-B, Red-labeled; assay: MST; 50 nM Red-labeled 6xHis-dAHR PAS-B; mARNT PAS-B 100 µM to 3 nM; PBS, 0.05% Tween-20, 2.5% DMSO, 0.5 mM TCEP; without αNF
[3] = target: T2, 6xHis-SUMO-tagged dAHR PAS-B (wild type) (Drosophila melanogaster, UniProt O61543 264-381); assay: ELISA; 100 nM 6xHis-SUMO-dAHR PAS-B (WT or mutants) coated on plates; GST-mARNT PAS-B 0.004-10 µM added, 1 h room temperature; anti-GST detection; four-parameter 'log(agonist) vs response' fit
T2 construct: Aryl hydrocarbon receptor homolog spineless (dAHR), Drosophila melanogaster, UniProt O61543, PAS-B domain aa 264-381; The printed name '6xHis-SUMO-dAHR PAS-B' puts the tag first; the end is not otherwise stated; also called 6xHis-SUMO-dAHR PAS-B; WT protein; source: E. coli Rosetta (DE3), purified; fusion tag retained
T2 sequence (looked up): T1 sequence (looked up)

[4] = target: T3, 6xHis-SUMO-tagged dAHR PAS-B Y310A (Drosophila melanogaster, UniProt O61543 264-381, Y310A); assay: as above
T3 construct: Aryl hydrocarbon receptor homolog spineless (dAHR), Drosophila melanogaster, UniProt O61543, PAS-B domain aa 264-381; source: E. coli Rosetta (DE3), purified as the WT protein; fusion tag retained
T3 sequence (looked up): T1 sequence (looked up) with Y47A

[5] = target: T4, 6xHis-SUMO-tagged dAHR PAS-B Y305A (Drosophila melanogaster, UniProt O61543 264-381, Y305A); assay: as above
T4 construct: Aryl hydrocarbon receptor homolog spineless (dAHR), Drosophila melanogaster, UniProt O61543, PAS-B domain aa 264-381; source: E. coli Rosetta (DE3), purified as the WT protein; fusion tag retained
T4 sequence (looked up): T1 sequence (looked up) with Y42A

Kd [1]: ~250 nM
Kd [2]: 300 nM
B1: mouse ARNT PAS-B domain (aa 360-465), fusion tag removed (domain or fragment)
chain: not shown
notes: Aryl hydrocarbon receptor nuclear translocator (ARNT), mouse, PAS-B domain aa 360-465; Subcloned into pET-28s 'similarly' to the AHR PAS-B domains; tag removed with ULP1; also called mARNT PAS-B

Kd [3]: ~380 nM
Kd [4]: 500 nM
Kd [5]: 1800 nM
B2: GST-tagged mARNT PAS-B (domain or fragment)
chain: not shown
notes: Aryl hydrocarbon receptor nuclear translocator (ARNT), mouse, PAS-B domain aa 360-465; GST retained for ELISA; also called GST-fused recombinant mARNT PAS-B; source: pGEX-6P-1 construct, purified
